From article PMC5971111 (Nature structural & molecular biology, 2018)

T1: Sec3 (S. cerevisiae, UniProt P33332 1-1336)
T1 sequence: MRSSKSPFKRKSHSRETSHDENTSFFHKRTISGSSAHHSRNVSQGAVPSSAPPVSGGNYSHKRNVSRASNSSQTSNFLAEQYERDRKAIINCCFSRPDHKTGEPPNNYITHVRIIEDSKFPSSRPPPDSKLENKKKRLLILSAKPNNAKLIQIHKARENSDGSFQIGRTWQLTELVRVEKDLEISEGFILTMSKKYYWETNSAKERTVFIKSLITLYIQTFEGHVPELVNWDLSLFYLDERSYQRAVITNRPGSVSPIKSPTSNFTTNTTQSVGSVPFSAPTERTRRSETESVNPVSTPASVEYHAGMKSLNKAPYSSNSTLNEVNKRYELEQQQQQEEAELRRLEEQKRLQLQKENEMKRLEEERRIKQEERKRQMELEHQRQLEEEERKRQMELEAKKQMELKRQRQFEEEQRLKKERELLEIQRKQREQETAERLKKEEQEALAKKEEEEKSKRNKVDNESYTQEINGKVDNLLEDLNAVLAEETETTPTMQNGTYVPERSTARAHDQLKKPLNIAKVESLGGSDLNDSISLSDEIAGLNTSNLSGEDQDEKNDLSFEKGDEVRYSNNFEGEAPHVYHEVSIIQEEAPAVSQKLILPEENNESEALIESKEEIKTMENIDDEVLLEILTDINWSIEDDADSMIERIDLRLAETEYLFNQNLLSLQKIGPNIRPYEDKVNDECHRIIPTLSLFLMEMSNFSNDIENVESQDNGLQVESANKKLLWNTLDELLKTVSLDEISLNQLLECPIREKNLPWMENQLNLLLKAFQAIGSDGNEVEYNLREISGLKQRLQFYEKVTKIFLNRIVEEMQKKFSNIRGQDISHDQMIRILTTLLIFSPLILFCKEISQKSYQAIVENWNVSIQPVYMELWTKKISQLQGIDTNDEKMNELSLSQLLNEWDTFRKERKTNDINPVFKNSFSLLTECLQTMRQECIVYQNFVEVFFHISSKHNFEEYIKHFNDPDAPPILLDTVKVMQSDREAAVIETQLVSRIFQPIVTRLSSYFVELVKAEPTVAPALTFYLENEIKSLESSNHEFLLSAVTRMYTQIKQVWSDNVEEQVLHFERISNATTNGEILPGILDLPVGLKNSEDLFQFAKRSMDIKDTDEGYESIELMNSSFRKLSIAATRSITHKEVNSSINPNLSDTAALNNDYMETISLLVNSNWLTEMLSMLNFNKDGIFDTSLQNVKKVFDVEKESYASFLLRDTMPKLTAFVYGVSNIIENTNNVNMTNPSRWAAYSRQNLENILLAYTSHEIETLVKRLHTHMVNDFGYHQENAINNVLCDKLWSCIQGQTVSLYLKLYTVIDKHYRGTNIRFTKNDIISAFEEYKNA

T2: Sec5 (S. cerevisiae, UniProt P89102 1-971)
T2 sequence: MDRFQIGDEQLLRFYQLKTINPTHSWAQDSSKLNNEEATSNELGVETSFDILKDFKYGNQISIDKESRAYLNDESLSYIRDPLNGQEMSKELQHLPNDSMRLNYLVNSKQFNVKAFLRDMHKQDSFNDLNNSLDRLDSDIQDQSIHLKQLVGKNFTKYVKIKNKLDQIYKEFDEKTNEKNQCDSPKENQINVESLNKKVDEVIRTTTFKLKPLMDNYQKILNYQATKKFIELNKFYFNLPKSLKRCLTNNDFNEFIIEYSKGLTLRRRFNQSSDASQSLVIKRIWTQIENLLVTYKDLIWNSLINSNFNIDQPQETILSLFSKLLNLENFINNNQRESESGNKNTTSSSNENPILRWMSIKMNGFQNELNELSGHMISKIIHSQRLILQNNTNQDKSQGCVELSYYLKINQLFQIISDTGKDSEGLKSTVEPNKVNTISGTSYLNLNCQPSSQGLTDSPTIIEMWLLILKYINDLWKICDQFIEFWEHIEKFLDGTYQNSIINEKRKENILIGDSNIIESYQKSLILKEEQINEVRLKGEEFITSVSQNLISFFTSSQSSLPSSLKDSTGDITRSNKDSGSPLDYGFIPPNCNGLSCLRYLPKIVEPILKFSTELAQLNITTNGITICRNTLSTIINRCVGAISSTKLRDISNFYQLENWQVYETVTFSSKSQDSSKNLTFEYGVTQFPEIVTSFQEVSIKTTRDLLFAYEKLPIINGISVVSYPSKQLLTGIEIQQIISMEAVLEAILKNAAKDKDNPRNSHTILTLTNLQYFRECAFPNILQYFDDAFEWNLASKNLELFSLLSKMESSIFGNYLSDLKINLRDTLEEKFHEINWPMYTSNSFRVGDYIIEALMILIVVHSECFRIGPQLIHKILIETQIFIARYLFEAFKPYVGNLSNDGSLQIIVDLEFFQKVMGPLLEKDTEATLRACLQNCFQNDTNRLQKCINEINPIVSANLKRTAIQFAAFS

T3: Sec15 (S. cerevisiae, UniProt P22224 1-910)
T3 sequence: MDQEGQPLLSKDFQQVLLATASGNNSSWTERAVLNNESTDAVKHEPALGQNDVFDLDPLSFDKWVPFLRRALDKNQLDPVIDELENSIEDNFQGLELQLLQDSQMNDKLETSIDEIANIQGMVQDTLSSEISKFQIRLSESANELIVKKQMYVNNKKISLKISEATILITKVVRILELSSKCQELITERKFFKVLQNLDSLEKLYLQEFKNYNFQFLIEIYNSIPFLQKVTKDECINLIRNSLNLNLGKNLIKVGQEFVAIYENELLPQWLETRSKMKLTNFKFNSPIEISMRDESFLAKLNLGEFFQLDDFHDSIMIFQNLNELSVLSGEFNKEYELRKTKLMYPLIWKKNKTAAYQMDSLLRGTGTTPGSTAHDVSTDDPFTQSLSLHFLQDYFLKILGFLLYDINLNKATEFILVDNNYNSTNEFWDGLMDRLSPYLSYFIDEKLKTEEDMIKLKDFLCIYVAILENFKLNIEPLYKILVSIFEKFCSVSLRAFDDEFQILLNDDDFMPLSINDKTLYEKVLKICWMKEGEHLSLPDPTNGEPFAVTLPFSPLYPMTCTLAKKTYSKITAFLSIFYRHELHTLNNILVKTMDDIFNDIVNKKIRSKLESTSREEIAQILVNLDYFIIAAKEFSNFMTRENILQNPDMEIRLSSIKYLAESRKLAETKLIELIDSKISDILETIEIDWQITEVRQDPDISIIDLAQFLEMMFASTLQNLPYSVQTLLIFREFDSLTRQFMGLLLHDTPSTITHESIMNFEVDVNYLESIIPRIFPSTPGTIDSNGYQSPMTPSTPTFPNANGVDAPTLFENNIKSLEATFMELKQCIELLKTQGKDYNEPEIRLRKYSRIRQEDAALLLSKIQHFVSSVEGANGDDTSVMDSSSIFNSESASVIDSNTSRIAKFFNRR

T4: Sec8 (S. cerevisiae, UniProt P32855 1-1065)
T4 sequence: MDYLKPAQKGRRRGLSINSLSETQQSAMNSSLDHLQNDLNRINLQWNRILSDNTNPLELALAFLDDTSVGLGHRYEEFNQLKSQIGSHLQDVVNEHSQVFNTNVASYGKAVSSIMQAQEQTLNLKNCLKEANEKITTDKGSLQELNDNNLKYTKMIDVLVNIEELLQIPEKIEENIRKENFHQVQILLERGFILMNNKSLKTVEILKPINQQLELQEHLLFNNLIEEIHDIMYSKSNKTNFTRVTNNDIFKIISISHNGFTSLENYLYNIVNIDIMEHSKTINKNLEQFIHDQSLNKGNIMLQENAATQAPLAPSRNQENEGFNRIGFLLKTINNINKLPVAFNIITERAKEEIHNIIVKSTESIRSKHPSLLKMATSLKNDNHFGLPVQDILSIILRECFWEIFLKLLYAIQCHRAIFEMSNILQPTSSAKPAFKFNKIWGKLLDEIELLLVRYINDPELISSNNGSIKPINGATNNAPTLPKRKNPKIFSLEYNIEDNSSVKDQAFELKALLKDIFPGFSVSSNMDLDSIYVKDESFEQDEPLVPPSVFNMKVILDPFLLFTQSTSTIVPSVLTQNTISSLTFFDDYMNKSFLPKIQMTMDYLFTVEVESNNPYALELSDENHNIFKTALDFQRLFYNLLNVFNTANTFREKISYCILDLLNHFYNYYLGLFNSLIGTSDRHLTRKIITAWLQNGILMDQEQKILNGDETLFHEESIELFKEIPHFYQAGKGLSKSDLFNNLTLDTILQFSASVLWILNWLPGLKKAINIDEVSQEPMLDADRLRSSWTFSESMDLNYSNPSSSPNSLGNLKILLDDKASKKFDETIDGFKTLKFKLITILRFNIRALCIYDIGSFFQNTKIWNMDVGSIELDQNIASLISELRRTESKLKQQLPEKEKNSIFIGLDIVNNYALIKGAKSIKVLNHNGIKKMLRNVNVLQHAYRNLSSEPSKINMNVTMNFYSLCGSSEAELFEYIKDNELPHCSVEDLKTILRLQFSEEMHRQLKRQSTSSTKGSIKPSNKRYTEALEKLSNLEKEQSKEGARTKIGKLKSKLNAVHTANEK

B1: Sec6 (natural protein)
chain: MSSDPLQQVCDLIKGDLSLERVRDIKEQLLKEKSVVEYQLNKESDKYYGEVEESLKLLNLSKNSVTSIKQQINEVNKLGNDNRFAINRYDILFRATKLYETVNTTSSIYDRIYNFVALMEHIERLLVAELAEDALETGCPHLLEIHFLLTSARDFQEQVVVMAKEATEDAQRTVMKLFSRLSGIISKFDKLLDGLTYDIVEMARAEQISLAIRLFKIYDLEEREDLRIEAIRNIIKKKEIEIEKSSIKKLPNSKNTARLQDETPKVIEYPTNKGLYQEIMSGTISTRTAPRGYKHFLINGINNSISEMFGEMREKYVGDQKFDVLDNMDWIFNELIIVKEHIANCCPPHWNIFEVYFDQYYKELHSLITDLVESEPETIIILDILAFDKTFQDTLKQDFGFTKSEVKSVIGDKEKETLFKDYLNLIVVKMTEWIGNLEKAEFDVFLERSTPPHSDSDGLLFLDGTKTCFQMFTQQVEVAAGTNQAKILVGVVERFSDLLTKRQKNWISKISEEIKKQINYNHKYDIDPESITPEDECPGGLVEYLIAVSNDQMKAADYAVAISSKYGKLVSKVYEKQITNHLEGTLDGFAEVAQCSSLGLITLMFDDLRKPYQEIFSKTWYMGSQAQQIADTLDEYLLDIKPQMNSVLFVNFIDNVIGETIIKFLTALSFEHSFKNKNNKFLEAMKRDFEIFYQLFVKVLDGNESKDTLITQNFTVMEFFMDLSCEPIDSILDIWQKYLEVYWDSRIDLLVGILKCRKDVSSSERKKIVQQATEMLHEYRRNMEANGVDREPTLMRRFVLEFEKQ
B2: Sec10 (natural protein)
chain: MNSLYELDPKWKKLLKTDNFLGGLTVNEFVQELSKDHRNDVLIDANTKNLPTNEKDQDAIREAIWKQLDPKPYIRTFESTLKELKNLNEETLNKRQYFSEQVATQEVIHSENVIKLSKDLHTTLLTFDKLDDRLTNVTQVVSPLGDKLETAIKKKQNYIQSVELIRRYNDFYSMGKSDIVEQLRLSKNWKLNLKSVKLMKNLLILSSKLETSSIPKTINTKLVIEKYSEMMENELLENFNSAYRENNFTKLNEIAIILNNFNGGVNVIQSFINQHDYFIDTKQIDLENEFENVFIKNVKFKEQLIDFENHSVIIETSMQNLINDVETVIKNESKIVKRVFEEKATHVIQLFIQRVFAQKIEPRFEVLLRNSLSISNLAYVRILHGLFTLFGKFTKSLIDYFQLLEIDDSNQILSTTLEQCFADLFSHYLYDRSKYFGIEKRSLEAILVDMTSKFTVNYDKEINKRVLLDKYKEKLSTNVDAFMHSPRGNTHSRQDSTSRSKLSQFNSFLKTHLDKDHLSLNRTNTLSDSFNNSSSSTQYDVANNSSSLVNSSFTASDIDNSPNSPANYSLNDVDSMLKCVVESTARVMELIPNKAHLYILEILKIMFLGIVDSYMEIALEVAYWKICKVDINKTAGVVNLNFLKFISMSTEILDLLSISIKSIFLPLLNNSPEIKAQIIEMTNSQIQKMEILINIILQETITVISTKFSAILCKQKKKDFVPKSQELLDQDTLPAIEIVNILNLIFEQSSKFLKGKNLQTFLTLIGEELYGLLLSHYSHFQVNSIGGVVVTKDIIGYQTAIEDWGVASLIDKFATLRELANLFTVQPELLESLTKEGHLADIGRDIIQSYISNREDFNHDNFINSVKLNFR

Tests used:
Assay in all cases: […]
Sec3 = target: T1, Sec3
Sec5 = target: T2, Sec5
Sec15 = target: T3, Sec15
Sec8 = target: T4, Sec8

Row | Binder | binding result (Sec3) | binding result (Sec5) | binding result (Sec15) | binding result (Sec8)
1 | B1 | binds | binds | – | –
2 | B2 | binds | – | binds | binds
